± gives the standard error. For part of these data: Fewer inactive variants are shown than the library holds.
B1: glmS ribozyme (parent)
chain: AUAAAAGCGCCAGAACUACAGAAAUGUAGUUGACGAGGAGGAGGUUUAUCGAAUUUUCGGCGGAUGCCUCCAAA

Legend:
Conditions in all cases: with glucosamine-6-phosphate
[1] = variants of: B1; experiment: kcat; higher = faster cleavage; RNA array
Procedure, shortened: (§1)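 Tiles bearing barcoded ribozyme variants, transcribed in situ by E. coli RNA polymerase on sequenced MiSeq chips, were imaged over ~14 h at 37 °C using a hybridised Cy3 probe. Glucosamine-6-phosphate was supplied at 40 μM to 10 mM in HEPES/KCl/Mg(OAc)2 buffer. kobs came from one- or two-exponential decay fits to normalised per-tile medians, and weighted Michaelis–Menten fits then provided kcat and KM.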

[2] = variants of: B1; experiment: self-cleavage kobs at 2500 uM GlcN6P; higher = faster cleavage; RNA array
Procedure, shortened: as §1

[3] = variants of: B1; experiment: self-cleavage kobs at 10000 uM GlcN6P; higher = faster cleavage; RNA array
Procedure, shortened: as §1

[4] = variants of: B1; experiment: KM; higher = weaker cofactor use; RNA array
Procedure, shortened: as §1

[5] = variants of: B1; experiment: self-cleavage kobs at 640 uM GlcN6P; higher = faster cleavage; RNA array
Procedure, shortened: as §1

[6] = variants of: B1; experiment: self-cleavage kobs at 160 uM GlcN6P; higher = faster cleavage; RNA array
Procedure, shortened: as §1

[7] = variants of: B1; experiment: self-cleavage kobs at 40 uM GlcN6P; higher = faster cleavage; RNA array
Procedure, shortened: as §1

Variant	kcat [1] [s⁻¹]	self-cleavage kobs at 2500 uM GlcN6P [2] [s⁻¹]	self-cleavage kobs at 10000 uM GlcN6P [3] [s⁻¹]	KM [4] [µM]	self-cleavage kobs at 640 uM GlcN6P [5] [s⁻¹]	self-cleavage kobs at 160 uM GlcN6P [6] [s⁻¹]	self-cleavage kobs at 40 uM GlcN6P [7] [s⁻¹]
A6U U31A	0.000122 ± 2.6e-05	8.83e-05 ± 2.1e-05	9.85e-05 ± 2.2e-05				
G32A C68G	3.18e-05 ± 4.2e-06	3.93e-05 ± 1.4e-05	2.81e-05 ± 9.3e-06				
A12G A14U C58A G66C	0.000245 ± 7.5e-05		8.77e-05 ± 2.7e-05				
G29U C58U C68U	3.99e-05 ± 1.3e-05	5.55e-05 ± 2.2e-05					
A39C A42C	6.31e-05 ± 3.9e-06	4.41e-05 ± 9.6e-06	5.88e-05 ± 8.3e-06	890 ± 270	3.24e-05 ± 1.5e-05		
A15G C34G C68A	2.44e-05 ± 5.8e-06						
U31G G43A	1.25e-05 ± 3.3e-06						
A52C U54G G63A	1.25e-05 ± 2.6e-06	< 1e-05	< 1e-05				
C8U A36C	< 1e-05		< 1e-05				
G35U C70U	< 1e-05		< 1e-05		< 1e-05	< 1e-05	
A39C U55C	0.00774 ± 0.0022	0.00268 ± 0.00051	0.0067 ± 0.00081	3010 ± 1100	0.00144 ± 0.00027	0.000325 ± 5e-05	0.000127 ± 1.4e-05
A12U C16A A33U A36C G38A G62A U69A C71U	2.12e-05 ± 1.1e-06						
A6U G29A	3.18e-05 ± 3.2e-06	2.95e-05 ± 1.3e-05	2.9e-05 ± 9.8e-06				< 1e-05
C58A C70U	0.000164 ± 2.2e-05	0.000143 ± 1.3e-05	0.000145 ± 1.7e-05	718 ± 270	6.79e-05 ± 8.4e-06	3.94e-05 ± 9.4e-06	
C11U U46G	0.000268 ± 4.3e-05	0.00018 ± 2.7e-05	0.000204 ± 2.3e-05	2460 ± 740	5.11e-05 ± 7.1e-06		
U30G G40U	0.000787 ± 9.4e-05	0.000615 ± 0.00014	0.000668 ± 7.3e-05	1610 ± 350	0.000212 ± 2.9e-05	6.94e-05 ± 1.5e-05	3.53e-05 ± 1.3e-05
U31C A42G	0.00894 ± 0.0011	0.00407 ± 0.0011	0.00754 ± 0.0012	2260 ± 400	0.00212 ± 0.00035	0.000469 ± 0.00016	0.000166 ± 2.9e-05

Variant	kcat [1] [s⁻¹]	self-cleavage kobs at 2500 uM GlcN6P [2] [s⁻¹]	self-cleavage kobs at 10000 uM GlcN6P [3] [s⁻¹]	KM [4] [µM]	self-cleavage kobs at 640 uM GlcN6P [5] [s⁻¹]	self-cleavage kobs at 160 uM GlcN6P [6] [s⁻¹]	self-cleavage kobs at 40 uM GlcN6P [7] [s⁻¹]
C50G U57C	4.02e-05 ± 1.6e-05	5.18e-05 ± 1.7e-05				4.88e-05 ± 2e-05	
A72C	0.00605 ± 0.0029	0.00362 ± 0.00077	0.0121 ± 0.0021		0.00257 ± 0.00043		0.000372 ± 7.3e-05
U54G G59U	3.86e-05 ± 1.5e-06	3.03e-05 ± 9.3e-06	3.71e-05 ± 6.4e-06	544 ± 170			
G63U C67A	< 1e-05		< 1e-05			< 1e-05	
U65C	0.000875 ± 9.1e-05	0.000626 ± 1.6e-05	0.000705 ± 1.6e-05	1690 ± 310	0.000238 ± 5.5e-06	6.95e-05 ± 2.6e-06	2.21e-05 ± 2.1e-06
G38A A52U	< 1e-05		< 1e-05				
A53C U54C	0.00131 ± 0.00043	0.0011 ± 0.00018	0.000805 ± 0.00023	1870 ± 890	0.000355 ± 6.3e-05	9.33e-05 ± 1.9e-05	2.24e-05 ± 9.7e-06
G40C G66A	0.00247 ± 0.00097	0.00108 ± 0.00021	0.00269 ± 0.0004		0.00111 ± 0.0003	0.000162 ± 4.5e-05	9.75e-05 ± 2.1e-05
G32U C70G	7.04e-05 ± 1e-05	5.3e-05 ± 5.7e-06	7.56e-05 ± 4.5e-06		8.68e-05 ± 1.2e-05		
A12C U55A	0.0159 ± 0.0051	0.0112 ± 0.0021		888 ± 360	0.00819 ± 0.0014	0.00192 ± 0.00036	0.000742 ± 8.1e-05
G40C C70A	0.000174 ± 1.6e-05	0.00016 ± 3.8e-05	0.000154 ± 2.9e-05	516 ± 140	0.000105 ± 1.9e-05		
U31C U45A	0.0175 ± 0.0045	0.00783 ± 0.0016	0.0108 ± 0.004	3890 ± 1200	0.00258 ± 0.00062	0.000613 ± 0.00012	0.000212 ± 6e-05
C50U G63C	< 1e-05		< 1e-05				
A52G U69G	5.99e-05 ± 2e-05	7.25e-05 ± 1.2e-05			0.000113 ± 2.5e-05	7.33e-05 ± 1.4e-05	
C8U G37A C58G	< 1e-05						
U46G G66U	0.000756 ± 0.00014	0.000448 ± 8e-05	0.000578 ± 8.8e-05	2360 ± 740	0.000177 ± 2.9e-05	3.38e-05 ± 1.2e-05	
C16A A53C	0.000269 ± 1.8e-05	0.000164 ± 2.3e-05	0.000226 ± 2.5e-05	1770 ± 270	6.66e-05 ± 1.2e-05	3.05e-05 ± 1.2e-05	

— the supplement of paper PMC7125110
